Experimental data: article PMC3351189 (Nucleic Acids Research, 2012)

Target: WD-repeat protein-5 (WDR5), S22-334 (UniProt P61964 22-334)
Assay: ITC

Binder	Kd
GSARAEPKMSA [MLL3 Win motif peptide (MLL3Win), C4708S substituted]	2030 nM
GSARAEVHLRK [MLL1 Win motif peptide (MLL1Win)]	1130 nM
GCARSEGFYTI [SET1B Win motif peptide (SET1BWin)]	100 nM
GCARSEPKILT [MLL2 Win motif peptide (MLL2Win)]	160 nM
GSARSEGYYPI [SET1A Win motif peptide (SET1AWin)]	260 nM
GAARAEVYLRK [MLL4 Win motif peptide (MLL4Win)]	30 nM
